Patent US20210340524A1 (MIT, published 2021)

Tests used:
FMC63 scFv = biological target: T1, FMC63 scFv (biotinylated); assay: flow cytometry of yeast clones, titration with biotinylated FMC63 scFv and streptavidin-PE, MFI (geometric mean)
T1 construct: also called biotinylated FMC63 scFv; FMC63-scFv monomer
Experimental: The binding affinity of the isolated yeast clones to FMC63 was determined.

FMC63 IgG [1] = biological target: T2, FMC63 IgG; assay: ELISA with FMC63 IgG; ELISA, not FACS titration
T2 construct: biotinylated in the flow cytometry assays; also called FMC63 IgG antibody; biotinylated FMC63 IgG
Experimental: Next, the affinity of the […] (SEQ ID NO: 5) mimotope to FMC63 was determined.

[2] = biological target: T3, anti-mCD19 IgG (clone 1D3); assay: ELISA, titration with anti-mCD19 (1D3) IgG, OD(450nm); value printed beside the circle curve
T3 construct: Anti-mouse CD19 IgG; also called 1D3 IgG; biotinylated 1D3 antibody

FMC63 IgG [3] = biological target: T2, FMC63 IgG; assay: flow cytometry (MFI), yeast clone titrated with 0.01-1000 nM biotinylated FMC63 IgG; yeast-displayed clone, FACS titration 0.01-1000 nM biotinylated FMC63 IgG
Excerpt: (§1) In order to validate specific sequences, clones were isolated and measured for their affinity to FMC63. Specifically, a subset of mimotope clones were selected from the fixed library sequence described in Example 5.

[4] = biological target: T3, anti-mCD19 IgG (clone 1D3); assay: ELISA, titration with anti-mCD19 (1D3) IgG, OD(450nm); value printed beside the square curve
FMC63 IgG [5] = biological target: T2, FMC63 IgG; assay: flow cytometry of yeast clones stained with 5 µM FMC63 IgG, tolerance of extra alanine residues
Experimental: (§2) To determine the effect of amino acid position on binding to FMC63, an alanine mutagenesis experiment was performed were each amino acid was mutated to alanine and binding to FMC63 was assessed. Specifically, a representative mimotope, […] To assess the tolerance of additional alanine residues, one alanine or two alanine residues were inserted between the two cysteine residues (SEQ ID NOs: 52 and 53) to determine the impact the loop structure had on mimotope binding to FMC63. To generate mutations, two complementary oligos with the codon replaced at the desired site were denatured at 95° C. and annealed by slow cooling to 25° C. (decreasing by 0.5° C./second). The annealed oligos were treated with T4 PNK (T4 Polynucleotide Kinase) to add a terminal phosphate, and then ligated into digested pCT-CON2 vector. Positive clones having the correct oligo inserted were tested and transformed into competent EBY100 yeast cells. Following generation of mutated clones, flow cytometry was performed by staining the yeast with 5 μM FMC63 IgG antibody to measure binding of the mimotope (FIG. 11).

FMC63 IgG [6] = biological target: T2, FMC63 IgG; assay: flow cytometry (MFI), yeast clone titrated with 0.01-1000 nM biotinylated FMC63 IgG
Excerpt: as §1

FMC63 IgG [7] = biological target: T2, FMC63 IgG; assay: flow cytometry of yeast clones stained with 5 µM FMC63 IgG, alanine scan
Experimental: as §2

FMC63 IgG [8] = biological target: T2, FMC63 IgG; assay: flow cytometry of yeast clones, titration with 0.01-1000 nM biotinylated FMC63 IgG, MFI (geometric mean)
Excerpt: as §1

[9] = biological target: T3, anti-mCD19 IgG (clone 1D3); assay: ELISA, titration with anti-mCD19 (1D3) IgG, OD(450nm); value printed beside the triangle curve

T3 sequence (VH, as listed by the source, chain 1 of 2): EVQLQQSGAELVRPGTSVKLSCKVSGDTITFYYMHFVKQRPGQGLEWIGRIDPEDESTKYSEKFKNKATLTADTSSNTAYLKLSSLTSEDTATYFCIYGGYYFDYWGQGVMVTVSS
T3 sequence (VL, as listed by the source, chain 2 of 2): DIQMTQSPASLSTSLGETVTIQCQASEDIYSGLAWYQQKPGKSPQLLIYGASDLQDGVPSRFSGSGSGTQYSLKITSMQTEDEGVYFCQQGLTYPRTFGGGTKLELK
T2 sequence (VH, as listed by the source, chain 1 of 2): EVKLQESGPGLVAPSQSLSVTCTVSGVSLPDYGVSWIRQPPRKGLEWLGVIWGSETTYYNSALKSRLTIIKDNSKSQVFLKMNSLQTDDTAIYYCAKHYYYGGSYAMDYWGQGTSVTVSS
T2 sequence (VL, as listed by the source, chain 2 of 2): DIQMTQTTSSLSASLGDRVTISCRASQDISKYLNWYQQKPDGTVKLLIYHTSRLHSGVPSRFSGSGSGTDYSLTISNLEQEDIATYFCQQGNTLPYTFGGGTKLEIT
T1 sequence (scFv, as listed by the source): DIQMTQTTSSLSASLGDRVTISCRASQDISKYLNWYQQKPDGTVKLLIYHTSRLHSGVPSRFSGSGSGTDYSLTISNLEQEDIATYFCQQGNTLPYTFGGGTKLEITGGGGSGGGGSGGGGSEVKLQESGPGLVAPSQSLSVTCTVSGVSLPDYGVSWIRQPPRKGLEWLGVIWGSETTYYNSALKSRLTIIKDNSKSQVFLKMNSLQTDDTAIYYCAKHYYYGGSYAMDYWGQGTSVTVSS

B1: FMC63 Mimotope(F12), yeast-displayed (peptide)
peptide: RICPWNCKEL
notes: also called F12 mimotope
B1 was tested, and the “EC50 (read off the curve)” value (FMC63 scFv) was about 40 nM.

B2: high-affinity mimotope RHCPWNCSLL (SEQ ID NO: 5) as used in the ELISA of FIG. 7 (peptide)
peptide: RHCPWNCSLL
In the case of B2, the Kd (FMC63 IgG [1]) is reported as about 1400 nM.

B3: 1D3 mimotope H1 (SKLKGKSGPE) as used in the ELISA of FIG. 13 (peptide)
peptide: SKLKGKSGPE
notes: also called 10 amino acid mimotope
In the case of B3, the Kd [2] is reported as 190 nM.

B4: FMC63 Mimotope (A1), yeast-displayed (peptide)
peptide: RHCPWNCSLL
B4 was tested, and the Kd (FMC63 IgG [3]) was over 1000 nM.

B5: 1D3 Mimotope Multimer H1 + C11 (SKLKGKSGPEFHWFINVPPF) (peptide)
peptide: SKLKGKSGPEFHWFINVPPF
notes: Chemically synthesized 20 amino acid fusion of two mimotopes; also called fusion mimotope
In the case of B5, the Kd [4] is reported as 102 nM.

B6: FMC63 Mimotope Mutant RLCPWSAACREL (SEQ ID NO: 52), yeast-displayed (peptide)
peptide: RLCPWSAACREL
notes: also called two alanine residues inserted between the two cysteine residues
B6: no binding (tested: 5 µM) (FMC63 IgG [5]).

B7: K-C2 mimotope, yeast-displayed (peptide)
peptide: RICPWNCKELPSPPRIFGNR
B7 was tested, and the “EC50 (read off the curve)” value (FMC63 scFv) was about 10 nM.

B8: FMC63 Mimotope (D12), yeast-displayed (peptide)
peptide: RICPWSCRAP
For B8, the Kd (FMC63 IgG [6]) was over 1000 nM.

B9: ALCPWSCREL (peptide)
displayed peptide: ALCPWSCREL
notes: also called alanine at R1 (position 1)
B9: no binding (tested: 5 µM) (FMC63 IgG [7]).

B10: FMC63 Mimotope(F8), yeast-displayed (peptide)
peptide: RLCPWDCREL
In the case of B10, the “EC50 (read off the curve)” value (FMC63 IgG [8]) is reported as about 10 nM.

B11: FMC63 Mimotope(H8), yeast-displayed (peptide)
peptide: RICPWACVEL
B11 was tested, and the “EC50 (read off the curve)” value (FMC63 IgG [8]) was about 8 nM.

B12: RLCPASCREL (peptide)
displayed peptide: RLCPASCREL
notes: also called alanine at W5 (position 5)
B12: no binding (tested: 5 µM) (FMC63 IgG [7]).

B13: RLAPWSCREL (peptide)
displayed peptide: RLAPWSCREL
notes: also called alanine at C3 (position 3)
B13: no binding (tested: 5 µM) (FMC63 IgG [7]).

B14: RLCPWSAREL (peptide)
displayed peptide: RLCPWSAREL
notes: also called alanine at C7 (position 7)
B14: no binding (tested: 5 µM) (FMC63 IgG [7]).

B15: RLCAWSCREL (peptide)
displayed peptide: RLCAWSCREL
notes: also called alanine at P4 (position 4)
B15: no binding (tested: 5 µM) (FMC63 IgG [7]).

B16: FMC63 Mimotope Mutant RLCPWSACREL (SEQ ID NO: 53), yeast-displayed (peptide)
peptide: RLCPWSACREL
notes: also called one alanine inserted between the two cysteine residues
B16: no binding (tested: 5 µM) (FMC63 IgG [5]).

B17: 1D3 Mimotope Multimer H1 + E2 (SKLKGKSGPEIRVLMSRVFA) (peptide)
peptide: SKLKGKSGPEIRVLMSRVFA
notes: as for B5
For B17, the Kd [9] was 6.7 nM.
